Results on 5 molecules are retold here after article PMC4871238 (Nature structural & molecular biology, 2015).

Sequences and labels used below:
B1: Dictyostelium discoideum ribosomal protein uL16 (L10) (natural protein, UniProt Q54J69 1-217, looked up)
chain: MGRRPARCYRYCKNKPYIKSRYCRGVPDAKIRIFDLGRKKASTDEFPLCVHLISLEKEQLSSEAIEAGRISCNKYISKTGGKDSFHMRVRVHPWHVLRINKMLSCAGADRLQTGMRGAFGKPMGTVARVNIGQIIFSIRTRDNMLANVVEALRRSSYKFPGRQKIVVSKKWGFTAYNREAYQKLKADGRLMNDGANVKVITNHGTLAQYAKDIAAAN
B2: Dictyostelium discoideum ribosomal protein uL11 (L12) (natural protein)
chain: not shown
B3: Dictyostelium discoideum ribosomal protein eL24 (L24) (natural protein, UniProt Q54VN6 1-127, looked up)
chain: MKTSLCNYSEFKIYPARGMKFVRGDSKVFHFINTKVESLFFRKINPRDIRWSMVYRRIYKNTTTDVSAKKKARKTKKVERNIVGASLEVIQQKRAQKPEVKQAAAEQAKREIKEKKKAAAKKAAPKK
B4: Dictyostelium discoideum eIF6 (eukaryotic initiation factor 6), endogenous (natural protein)
chain: not shown
B5: Dictyostelium discoideum ribosomal protein uL14 (L23) (natural protein)
chain: not shown

Common to all, as to experiment: cryo-EM structure
Assay [1] addresses T1, human SBDS (Shwachman-Bodian-Diamond syndrome protein) (human, UniProt Q9Y3A5 1-250).
T1 sequence: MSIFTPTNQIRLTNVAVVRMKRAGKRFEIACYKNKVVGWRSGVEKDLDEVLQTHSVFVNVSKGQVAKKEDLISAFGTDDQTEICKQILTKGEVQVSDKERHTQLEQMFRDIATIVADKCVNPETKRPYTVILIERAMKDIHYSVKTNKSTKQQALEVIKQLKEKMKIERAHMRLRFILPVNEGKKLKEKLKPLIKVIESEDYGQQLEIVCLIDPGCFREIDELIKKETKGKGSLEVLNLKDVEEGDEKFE

The target in assay [2] is B4.
Assay [3] concerns the target Dictyostelium discoideum ribosomal protein uL3 (L3) (Dictyostelium discoideum, UniProt P34113 1-398).

Chain of Dictyostelium discoideum ribosomal protein uL3 (L3) (P34113 whole entry): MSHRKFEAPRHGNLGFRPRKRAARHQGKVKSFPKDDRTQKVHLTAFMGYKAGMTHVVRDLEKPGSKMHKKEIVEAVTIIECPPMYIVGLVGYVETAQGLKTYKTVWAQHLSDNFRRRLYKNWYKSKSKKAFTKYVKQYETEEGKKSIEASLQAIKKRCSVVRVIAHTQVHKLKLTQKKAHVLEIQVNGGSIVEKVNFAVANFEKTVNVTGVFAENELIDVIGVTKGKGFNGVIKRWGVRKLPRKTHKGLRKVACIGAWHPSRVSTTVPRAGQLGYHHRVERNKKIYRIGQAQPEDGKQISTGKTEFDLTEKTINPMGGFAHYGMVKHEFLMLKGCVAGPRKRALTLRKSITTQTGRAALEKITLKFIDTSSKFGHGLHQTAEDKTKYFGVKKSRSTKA

Turning to B1, the binding result in assay [1] was “binds”.
Same read-out and setting: with B2 the entry was “binds”.
As to B3, in assay [2], the binding result is “binds”.
For B4, the binding result in assay [3] is on record as “binds”.
For B5, the binding result in assay [2] was “binds”.
